How the values were obtained:
[1] = biological target: SARS-CoV-2 Omicron BA.1 spike protein trimer (AcroBiosystems) (SARS-CoV-2 (Omicron BA.1)) (UniProt P0DTC2); assay: ELISA; spike trimer (Wuhan or Omicron BA.1) or BSA coated on Nunc MaxiSorp plates in carbonate/bicarbonate buffer, 18 h at 4 °C; rCL-11 (CHO) in solution, either titrated on 2 µg/mL spike or 3 µg/mL on a range of spike; detected with rabbit anti-human CL-11 and HRP anti-rabbit IgG
[2] = biological target: SARS-CoV-2 Wuhan spike protein trimer (AcroBiosystems) (SARS-CoV-2 (Wuhan)) (UniProt P0DTC2); assay: as above
[3] = biological target: SARS-CoV-2 Wuhan spike protein trimer (AcroBiosystems) (SARS-CoV-2 (Wuhan)) (UniProt P0DTC2); assay: ELISA; Wuhan spike 2 µg/mL coated; rCL-11 3 µg/mL with L-fucose or D-galactose (0 to 200 mM) or 20 mM EDTA, 18 h at 4 °C

For “recombinant collectin-11 (rCL-11), CHO-expressed (from UniProt Q9BWP8 26-271) (natural protein)”, the EC50 [1] was 6 nM, the EC50 [2] was 7.6 nM and the percent inhibition by L-fucose [3] was > 90%.

Reference: publication PMC12582335
